Blank lines part the entries; values can stand above or below the molecule they belong to.
How the values were obtained:
[1] = target: barley limit dextrinase present in barley malt extract (barley (Hordeum vulgare subsp. vulgare)); assay: cell-based or functional assay; conditions: scale: fraction of the rate of the uninhibited sample
[2] = target: recombinant barley limit dextrinase inhibitor

rate of o-NP release from compound 6 in barley malt extract (absorbance at 430 nm), with and without added limit dextrinase inhibitor [1]: 0.1
Molecule: recombinant barley limit dextrinase inhibitor

B1: barley limit dextrinase present in barley malt extract (protein)
chain: MAVGETGASVSAAEAEAEATQAFMPDARAYWVTSDLIAWNVGELEAQSVCLYASRAAAMSLSPSNGGIQGYDSKVELQPESAGLPETVTQKFPFISSYRAFKVPSSVDVASLVKCQLVVASFGADGKHVDVTGLQLPGVLDDMFAYTGPLGAVFSEDSVSLHLWAPTAQGVSVCFFDGPAGPALETVQLKESNGVWSVTGPREWENRYYLYEVDVYHPTKAQVLKCLAGDPYARSLSANGARTWLVDINNETLKPASWDELADEKPKLDSFSDITIYELHIRDFSAHDGTVDSDSRGGFRAFAYQASAGMEHLRKLSDAGLTHVHLLPSFHFAGVDDIKSNWKFVDECELATFPPGSDMQQAAVVAIQEEDPYNWGYNPVLWGVPKGSYASDPDGPSRIIEYRQMVQALNRIGLRVVMDVVYNHLDSSGPCGISSVLDKIVPGYYVRRDTNGQIENSAAMNNTASEHFMVDRLIVDDLLNWAVNYKVDGFRFDLMGHIMKRTMVTKSALQSLTTDAHGVDGSKIYLYGEGWDFAEVARNQRGINGSQLNMSGTGIGSFNDRIRDAINGGNPFGNPLQQGFNTGLFLEPNGFYQGNEADTRRSLATYADQIQIGLAGNLRDYVLISHTGEAKKGSEIHTFDGLPVGYTASPIETINYVSAHDNETLFDVISVKTPMILSVDERCRINHLASSMMALSQGIPFFHAGDEILRSKSIDRDSYNSGDWFNKLDFTYETNNWGVGLPPSEKNEDNWPLMKPRLENPSFKPAKGHILAALDSFVDILKIRYSSPLFRLSTANDIKQRVRFHNTGPSLVPGVIVMGIEDARGESPEMAQLDTNFSYVVTVFNVCPHEVSMDIPALASMGFELHPVQVNSSDTLVRKSAYEAATGRFTVPGRTVSVFVEPRC
hydrolysis of compound 19 in barley malt extract after 1 h at 60 C (UPLC, fluorescence detection), with and without added LDI [2]: When LDI was added to the extract, almost all activity of limit dextrinase was inhibited, and only negligible amounts of the compound 19 was hydrolyzed

— patent publication US20150140573A1
